Here are results for 8 molecules from patent US20230295316A1 (FRED HUTCHINSON CANCER CENTER, published 2023).

Like-named read-outs stand apart in the source and are kept apart here.

Assay [1] addresses T1, human interleukin-3 (IL-3) receptor alpha-chain (CD123), on cells (human, UniProt P26951 19-378).
T1 construct: whole, on cells; also called human CD123
Put plainly: flow cytometry (APC-A), unmodified mAb + secondary antibody, RS4;11 cells overexpressing human CD123 [CONT.]. The text has this:
FIG. 4. Parental CD123-negative human RS4;11 ALL cells and RS4;11 cells engineered to overexpress human CD123 were used for flow cytometric phenotyping of a series of anti-CD123 mAbs (11F11, 5G4, 10C4, 1H8) that were either left unmodified or were reacted with 5, 10, or 15 equivalents of B10. A secondary mAb-only control is also shown.

The target of assay [2] is T1, human interleukin-3 (IL-3) receptor …. As to the kind of experiment: flow cytometry (APC-A), 30 min at 4 °C; bound fusion protein detected with APC-anti-hFc (tubes 1-5) or through Y-DOTA-biotin and APC-SA (tubes 6-8); RS4;11 cells expressing human CD123. As to the method: FIG. 24. Flow cytometry-based binding assay of monomeric anti-CD123 BsAb derived from 10C4 binding sequences. 0.4×10⁶ CD123-negative parental RS4;11 cells (RSA) or RSA cells engineered to express human CD123 (RS4-CD123) were incubated with or without CD123 bispecific fusion protein from purification (FP) or crude supernatant (load), with or without Y-DOTA-biotin. After incubating for 30 min at 4° C. cells were washed twice and assayed by flow cytometry with fluorophore-labeled anti-human Fc receptor secondary Ab (tubes 1-5) to detect bound bispecific fusion protein, or fluorophore labeled […] secondary Ab (tubes 6-8) to detect functional capacity of bispecific fusion protein to bind both CD123+ target cells and the radioligand, Y-DOTA-biotin.

The target in assay [3] is T2, Hs_CD123_6His-Avi (CD123 ECD-His-Avi fusion protein) (human, UniProt P26951 19-303).
T2 construct: The signal peptide is marked only by bold type, so its limits cannot be read here and were not guessed; also called His-Avi tagged peptide encompassing the ECD of human CD123
T2 sequence: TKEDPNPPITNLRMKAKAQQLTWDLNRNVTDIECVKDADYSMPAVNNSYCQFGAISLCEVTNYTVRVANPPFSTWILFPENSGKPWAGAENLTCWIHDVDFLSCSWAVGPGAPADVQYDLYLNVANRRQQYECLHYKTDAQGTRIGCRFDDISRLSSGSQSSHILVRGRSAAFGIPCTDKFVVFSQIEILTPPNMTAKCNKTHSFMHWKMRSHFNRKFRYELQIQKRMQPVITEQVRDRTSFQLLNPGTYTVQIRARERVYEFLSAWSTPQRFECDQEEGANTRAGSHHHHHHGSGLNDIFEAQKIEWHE
Put plainly: competition ELISA: plate coated with CD123 ECD-His-Avi, biotinylated 10C4 as competitor, increasing unlabeled antibody, HRP-streptavidin; unit not given, x axis is log(concentration). From the text: (§1) FIGS. 15A-15B. Enzyme-linked immunosorbent assay (ELISA) with the original mouse 10C4 antibody and peptide encompassing the entire extracellular domain (ECD) of CD123 was used to test competitive binding of 10C4 compared to recombinant (FIG. 15A) human IgG1 versions and (FIG. 15B) human IgG4 versions of chimeric 10C4 and humanized 10C4 monoclonal antibodies. Plates were coated with CD123 ECD-His-Avi fusion protein and bound to biotinylated 10C4 antibody in the presence or absence of increasing amounts of competing unlabeled antibodies, as detected by HRP-Streptavidin.

Assay [4] deals with T2, Hs_CD123_6His-Avi (CD123 ECD-His-Avi …). Described as above.
Source text: as §1
The source holds these as a separate data set.

For assay [5] the target is unchanged. Put plainly: SPR (Biacore T-100), univalent affinity; antibody captured on the CM4 chip, human CD123 ECD as analyte. As to the method: FIGS. 13A-13B. Surface plasmon resonance (Biacore T-100) analyses were performed to rigorously/precisely determine univalent binding affinities of recombinant chimeric and humanized versions of the anti-human CD123 monoclonal antibody 10C4, using (FIG. 13A) human IgG1 and (FIG. 13B) human IgG4 frameworks. For these experiments, a peptide encoding the complete extracellular portion of human CD123 was used, and the antibodies were captured on the biosensor chip (CM4) via a Fc gamma-specific goat anti-human IgG and amine coupling.
For orientation: Surface plasmon resonance follows binding to a sensor surface in real time, without labels.

For assay [6], the target named is T1, human interleukin-3 (IL-3) receptor …. Put plainly: flow cytometry (APC-A), mAb at 2 µg/mL + labeled secondary antibody; RS4;11 transduced with human CD123, TF-1, KG-1, MOLM-13 cells. As to the method:
FIG. 1. Parental human RS4;11 cells (endogenously lacking CD123), RS4;11 cells transduced with human CD123, CD123-expressing human AML cells lines (TF-1, KG-1, MOLM-13), and MOLM-13 cells with CRISPR/Cas9-mediated knockout of the CD123 locus (CD123^KO) were left untreated or treated with murine anti-human CD123 mAbs (10C4, 5G6, 11F11, 1H8; used at 2 µg/mL) or a commercial anti-CD123 mAbs (7G3, used at 2 µg/mL) and a labeled secondary antibody before flow cytometric analysis.
In general terms: In flow cytometry, cells or beads pass a laser one at a time.

Assay [7] shares this target. As to the kind of experiment: flow cytometry (PE-A), recombinant human IgG1 mAb + labeled secondary antibody, parental MOLM-13 cells against MOLM-13 CD123KO.
Assay [8] has the same target. As to the kind of experiment: flow cytometry (PE-A), recombinant human IgG4 mAb + labeled secondary antibody, parental MOLM-13 cells against MOLM-13 CD123KO. From the text: FIGS. 20A-20B. MOLM-13 cells with CRISPR/Cas9-mediated knockout of the CD123 locus (MOLM-13^CD123KO), parental MOLM-13 cells (endogenously expressing CD123) (FIG. 20A), ML-1 cells with CRISPR/Cas9-mediated knockout of the CD123 locus (ML-1^CD123KO), and ML-1^CD123KO cells in which human CD123 was re-expressed via lentivirus-mediated gene expression (FIG. 20B) were left untreated or treated with recombinant human anti-human CD123 mAbs (clones 1B5, 1D9, 1E3, 1F2, and 1G5; all human IgG4 frameworks) and a labeled secondary antibody before flow cytometric analysis.

Assay [9] concerns the target T2, Hs_CD123_6His-Avi (CD123 ECD-His-Avi …). Put plainly: competition ELISA against biotinylated 10C4 on coated CD123 ECD-His-Avi; percent relative to the 10C4 row of the drawn table.
Source text: as §1
A general note: In an ELISA, binding on a coated surface is turned into a signal by an enzyme label.

B1: 123-1H8 (murine anti-CD123 antibody, IgG1 isotype, Kappa Light Chain) (antibody, V domains shown)
VH: EVKLVESEGGLVQPGSSMKLSCTASGFTFSDYYMAWVRQVPEKGLEWVANIDDEGSSTYYLDSLKSRFIISRDNAKNILYLQMTSLKSEDTATYYCARGTTQTSFFVHWGQGTLVTVSA
VL: DIVLTQSPASLAVSLGQRATISCRASQSVSSSSYSFMHWYQKKPRQPPKLLIKYASTLEAGVPARFSGSGSGTDFTLNIHPVEEEDTATYYCQHSWEIPYTFGGGTKLEIK
notes: murine IgG1, kappa
On to B1, for which, in assay [1], the binding result is “binds”.

B2: 10C4-Fc-C825 monomeric construct (monomeric anti-CD123 x anti-Y-DOTA bispecific antibody) (bispecific antibody, human IgG1)
chain: DIVMSQSPSSLAVSAGEKVTMSCKSSQSLLSSGTRKNYLAWYQQKPGQSPKLLIYWASTRESGVPDRFTGSGSGTDFTLTISSVQAEDLAVYYCKQSYILFTFGSGTKLEIKGGGSGGGGSGGGGSGGGGSSQVQLKESGPGLVAPSQNLSITCTVSGFSLTTYDINWIRQPPGKGLEWLGVIWTGGGTNYNSAFMSRLSISKDNSKSQVFLKMNSLQTDDTAMYYCVRGDTYHYALDFWGQGTSVTVSSLEPKSSDKTHTSPPSPAPELLGGPSVFLFPPKPKDTLMISRTPEVTCVVVDVSHEDPEVKFNWYVDGVEVHNAKTKPREEQYNSTYRVVSVLTVLHQDWLNGKEYKCKVSNKALPAPIEKTISKAKGQPREPQVYTLPPSRDELTKNQVSLTCRVKGFYPSDIAVEWESNGQPENNYKTTPPVLDSDGSFHLESKLTVDKSRWQQGNVFSCSVMHEGLHNHYTQKSLSLSPGKVDGASSHVNVSSPSVQDIHVKLQESGPGLVQPSQSLSLTCTVSGFSLTDYGVHWVRQSPGKGLEWLGVIWSGGGTAYNTALISRLNIYRDNSKNQVFLEMNSLQAEDTAMYYCARRGSYPYNYFDAWGCGTTVTVSSGGGGSGGGGSGGGGSQAVVIQESALTTPPGETVTLTCGSSTGAVTASNYANWVQEKPDHCFTGLIGGHNNRPPGVPARFSGSLIGDKAALTIAGTQTEDEAIYFCALWYSDHWVIGGGTRLTVLG
notes: Single chain: 10C4 VL, linker 1, 10C4 VH, hinge and human IgG1 Fc (monomerising substitutions), linker 2, C825 VH, linker 3, C825 VL; also called monomeric 10C4 BsAb; monomeric anti-CD123 BsAb
For B2, in assay [2], the binding result is reported as “binds”.

B3: 123-10C4 (murine anti-CD123 antibody, IgG2b isotype, Kappa Light Chain) (antibody, V domains shown)
VH: QVQLKESGPGLVAPSQNLSITCTVSGFSLTTYDINWIRQPPGKGLEWLGVIWTGGGTNYNSAFMSRLSISKDNSKSQVFLKMNSLQTDDTAMYYCVRGDTYHYALDFWGQGTSVTVSS
VL: DIVMSQSPSSLAVSAGEKVTMSCKSSQSLLSSGTRKNYLAWYQQKPGQSPKLLIYWASTRESGVPDRFTGSGSGTDFTLTISSVQAEDLAVYYCKQSYILFTFGSGTKLEIK
notes: also called parent murine 10C4; murine anti-human CD123 monoclonal antibody 10C4
On to B3, for which the “Calculated concentration at 1/2 OD” value in assay [3] was 1.12. In assay [4], the “Calculated concentration at 1/2 OD” value was 1.04. Moreover, in assay [5], the Kd (as a rule, the constant that tells how readily two partners part at equilibrium) stood at 401 pM; the koff (usually a measure of how fast the partners let go of each other) was 0.000102 s⁻¹; the on-rate constant (kon) (commonly the rate constant with which the complex forms) was found to be 254000 M⁻¹ s⁻¹.

B4: 123-11F11 (murine anti-CD123 antibody, IgG1 isotype, Kappa Light Chain) (antibody, V domains shown)
VH: EVTLVESGGGLEQPGGSLSLSCAASGFTFTDYYMSWVRQPPGKALEWLALIRNKANGYTTEYSASVKGRFTISRDNSQSILYLQMNALRAEDSATYYCARQVRNYYGYEEDALDYWGQGTSVTVSS
VL: DIVLTQSPASLAVSLGQRATISCRASESLDFYGNSFMHWYQQKSGQPPKLLISRASNLESGIPPRFSGSGSRTDFTLTIDPVEADDVATYYCQQSYEDPYTFGGGTKLEIK
notes: murine IgG1, kappa
B4: in assay [6], the binding result is on record as “binds”.

B5: 123-ATX1F2, fully human recombinant antibody, human IgG1 framework (antibody)
heavy: not shown
light: DIQMTQSPSSLSASVGDRVTITCRASQGIRNDLGWYQQRPGKAPKRLIYAASSLQSGVPSRFSGSGSGTEFTLAISSLQPEDFATYSCLQHNSYPWTFGQGTKVEIKRTVAAPSVFIFPPSDEQLKSGTASVVCLLNNFYPREAKVQWKVDNALQSGNSQESVTEQDSKDSTYSLSSTLTLSKADYEKHKVYACEVTHQGLSSPVTKSFNRGEC
notes: also called 1F2 (human IgG1)
B5: the binding result in assay [7] is “binds”.

B6: 123-ATX1F2, fully human recombinant antibody, human IgG4 framework (antibody)
heavy: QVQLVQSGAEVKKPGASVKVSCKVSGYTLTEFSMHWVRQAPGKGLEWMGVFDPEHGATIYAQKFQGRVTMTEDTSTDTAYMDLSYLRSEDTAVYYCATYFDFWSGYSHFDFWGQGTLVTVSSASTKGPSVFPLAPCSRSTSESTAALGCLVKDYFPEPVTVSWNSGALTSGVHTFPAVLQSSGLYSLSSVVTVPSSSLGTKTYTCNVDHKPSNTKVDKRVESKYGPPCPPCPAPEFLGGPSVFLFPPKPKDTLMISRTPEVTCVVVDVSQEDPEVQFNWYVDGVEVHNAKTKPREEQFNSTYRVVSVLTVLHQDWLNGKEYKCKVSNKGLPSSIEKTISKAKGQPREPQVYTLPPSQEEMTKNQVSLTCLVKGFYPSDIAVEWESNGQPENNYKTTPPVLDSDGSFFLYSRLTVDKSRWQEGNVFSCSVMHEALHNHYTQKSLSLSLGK
light: B5 light
notes: also called 1F2 (human IgG4)
Turning to B6, in [8], the binding result is reported as “binds”.

B7: Chi-10C4, recombinant chimeric 10C4, human IgG4 framework (antibody)
heavy: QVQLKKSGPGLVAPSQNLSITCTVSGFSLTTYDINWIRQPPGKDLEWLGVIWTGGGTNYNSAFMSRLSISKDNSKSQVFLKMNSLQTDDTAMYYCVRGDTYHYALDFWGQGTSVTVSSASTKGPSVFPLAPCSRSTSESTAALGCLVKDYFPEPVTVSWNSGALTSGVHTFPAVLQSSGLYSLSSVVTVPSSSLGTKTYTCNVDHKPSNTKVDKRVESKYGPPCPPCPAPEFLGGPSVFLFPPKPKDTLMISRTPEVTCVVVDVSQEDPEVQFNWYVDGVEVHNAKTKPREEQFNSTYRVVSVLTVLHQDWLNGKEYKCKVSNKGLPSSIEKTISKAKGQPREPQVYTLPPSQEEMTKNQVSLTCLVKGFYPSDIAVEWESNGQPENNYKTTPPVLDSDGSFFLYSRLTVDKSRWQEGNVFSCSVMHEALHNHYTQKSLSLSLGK
light: DIVMSQSPSSLAVSAGEKVTMSCKSSQSLLSSGTRKNYLAWYQQKPGQSPKLLIYWASTRESGVPDRFTGSGSGTDFTLTISSVQAEDLAVYYCKQSYILFTFGSGTKLEIKRTVAAPSVFIFPPSDEQLKSGTASVVCLLNNFYPREAKVQWKVDNALQSGNSQESVTEQDSKDSTYSLSSTLTLSKADYEKHKVYACEVTHQGLSSPVTKSFNRGEC
notes: Signal peptide left out as for the IgG1 form
As to B7, in [4], the “Calculated concentration at 1/2 OD” value is 1.21. Moreover, in assay [9], the Immunoreactivity was 116%. In [5], this molecule yielded an equilibrium dissociation constant (Kd) of 1390 pM, a koff of 0.00011 s⁻¹ and an association rate constant (kon) of 79100 M⁻¹ s⁻¹.

B8: Chi-10C4, recombinant chimeric 10C4, human IgG1 framework (antibody)
heavy: not shown
light: B7 light
For B8, in [3], the “Calculated concentration at 1/2 OD” value is 1.12. Also, the Immunoreactivity in assay [9] is 100%. Besides, in [5], binding was put at a Kd of 572 pM, the koff was found to be 5.24e-05 s⁻¹ and the kon is 91600 M⁻¹ s⁻¹.
